Measurements from PMC3089470 (Nucleic Acids Research, 2011).
Numbering of substitutions follows the chain as printed.

What was measured:
Assay in all cases: pull-down
[1] = target: T1, GST-tagged NBS1 fragment NBS1A (1-221) (UniProt O60934 1-221)
T1 sequence: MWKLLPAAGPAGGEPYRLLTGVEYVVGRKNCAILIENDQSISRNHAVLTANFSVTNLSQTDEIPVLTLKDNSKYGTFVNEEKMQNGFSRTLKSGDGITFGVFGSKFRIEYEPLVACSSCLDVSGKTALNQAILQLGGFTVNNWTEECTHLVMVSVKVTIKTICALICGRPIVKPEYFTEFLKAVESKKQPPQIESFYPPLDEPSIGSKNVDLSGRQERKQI

[2] = target: T2, NBS1A with the mutation I171V (UniProt O60934 1-221, I171V)
T2 sequence: T1 sequence with I171V

[3] = target: T3, NBS1A with the mutation R215W (UniProt O60934 1-221, R215W)
T3 sequence: T1 sequence with R215W

[4] = target: purified recombinant MRN complex (Mre11:Rad50:NBS1) (UniProt P49959;Q92878;O60934)

Measured: binding result

Chain of purified recombinant MRN complex (Mre11:Rad50:NBS1) (P49959 whole entry, chain 1 of 2): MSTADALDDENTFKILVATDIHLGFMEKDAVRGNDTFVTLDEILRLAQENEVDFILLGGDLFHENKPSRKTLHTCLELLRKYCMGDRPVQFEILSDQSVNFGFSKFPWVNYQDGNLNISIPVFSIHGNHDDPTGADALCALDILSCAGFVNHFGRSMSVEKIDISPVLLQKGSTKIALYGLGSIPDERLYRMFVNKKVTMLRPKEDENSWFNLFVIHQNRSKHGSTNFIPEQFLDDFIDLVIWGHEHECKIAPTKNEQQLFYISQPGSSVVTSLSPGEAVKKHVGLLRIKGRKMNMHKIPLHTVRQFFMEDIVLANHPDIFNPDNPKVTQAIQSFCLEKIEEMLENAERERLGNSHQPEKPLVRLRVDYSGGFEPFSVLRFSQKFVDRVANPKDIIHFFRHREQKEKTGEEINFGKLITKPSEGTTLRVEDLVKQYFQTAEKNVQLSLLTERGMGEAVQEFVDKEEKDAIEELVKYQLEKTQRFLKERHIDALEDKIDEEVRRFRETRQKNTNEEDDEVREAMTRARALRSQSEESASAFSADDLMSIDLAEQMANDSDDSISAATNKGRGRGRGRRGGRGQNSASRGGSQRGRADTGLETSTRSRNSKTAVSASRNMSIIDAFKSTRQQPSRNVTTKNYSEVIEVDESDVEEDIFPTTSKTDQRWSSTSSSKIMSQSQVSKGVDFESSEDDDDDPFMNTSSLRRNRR
Chain of purified recombinant MRN complex (Mre11:Rad50:NBS1) (Q92878 whole entry, chain 2 of 2): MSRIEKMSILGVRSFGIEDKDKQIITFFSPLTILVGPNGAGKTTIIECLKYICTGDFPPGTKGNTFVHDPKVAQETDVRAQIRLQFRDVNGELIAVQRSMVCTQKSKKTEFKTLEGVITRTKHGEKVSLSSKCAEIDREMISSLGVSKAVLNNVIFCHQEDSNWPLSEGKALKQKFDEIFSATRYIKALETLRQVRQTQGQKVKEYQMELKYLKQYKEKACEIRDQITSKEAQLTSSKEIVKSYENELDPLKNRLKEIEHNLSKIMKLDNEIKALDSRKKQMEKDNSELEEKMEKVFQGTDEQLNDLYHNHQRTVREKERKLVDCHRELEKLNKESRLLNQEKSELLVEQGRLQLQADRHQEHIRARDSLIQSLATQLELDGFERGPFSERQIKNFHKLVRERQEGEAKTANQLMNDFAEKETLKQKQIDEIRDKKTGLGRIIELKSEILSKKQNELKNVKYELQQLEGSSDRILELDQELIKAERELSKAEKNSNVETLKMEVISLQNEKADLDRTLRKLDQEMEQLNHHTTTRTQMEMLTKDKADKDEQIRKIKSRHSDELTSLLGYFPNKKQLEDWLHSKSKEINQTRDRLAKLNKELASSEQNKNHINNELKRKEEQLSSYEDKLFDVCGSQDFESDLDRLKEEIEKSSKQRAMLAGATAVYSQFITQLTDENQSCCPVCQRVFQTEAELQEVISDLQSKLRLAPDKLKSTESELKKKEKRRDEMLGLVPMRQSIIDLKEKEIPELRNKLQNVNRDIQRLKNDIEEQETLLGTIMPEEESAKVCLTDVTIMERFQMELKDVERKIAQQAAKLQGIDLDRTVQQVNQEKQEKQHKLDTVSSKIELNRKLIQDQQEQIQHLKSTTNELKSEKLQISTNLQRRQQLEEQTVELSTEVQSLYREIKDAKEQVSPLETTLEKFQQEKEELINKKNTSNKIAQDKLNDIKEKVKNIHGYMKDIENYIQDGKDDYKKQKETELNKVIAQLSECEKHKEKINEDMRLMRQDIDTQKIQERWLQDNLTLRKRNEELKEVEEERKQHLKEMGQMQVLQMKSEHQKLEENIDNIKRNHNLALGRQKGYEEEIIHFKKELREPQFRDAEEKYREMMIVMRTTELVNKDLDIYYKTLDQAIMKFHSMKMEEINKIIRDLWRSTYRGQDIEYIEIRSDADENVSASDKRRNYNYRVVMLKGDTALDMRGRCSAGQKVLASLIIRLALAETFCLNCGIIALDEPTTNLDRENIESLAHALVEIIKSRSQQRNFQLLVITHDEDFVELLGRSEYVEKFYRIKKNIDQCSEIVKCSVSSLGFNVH

B1: hSSB1, full-length recombinant, His-tagged (natural protein)
chain: MTTETFVKDIKPGLKNLNLIFIVLETGRVTKTKDGHEVRTCKVADKTGSINISVWDDVGNLIQPGDIIRLTKGYASVFKGCLTLYTGRGGDLQKIGEFCMVYSEVPNFSEPNPEYSTQQAPNKAVQNDSNPSASQPTTGPSAASPASENQNGNGLSAPPGPGGGPHPPHTPSHPPSTRITRSQPNHTPAGPPGPSSNPVSNGKETRRSSKR
binds: all assays above
